Assay type in all cases: cell-based
Experiment [1] concerns the target T1, PI3K (Homo sapiens, UniProt P27986). The experiment can be described thus: IGF-1-induced PI3K activation in Hep3B cells incubated with peptides. The following applies: 4 μM peptides, 48 hr, FIG. 2C. Also noted: The cell lysates were immunoprecipitated with p85α (sc-1637, Santa Cruz) and Protein G-Sepharose beads; endogenous in cells; host or cells: Hep3B. As for the experimental part: (§1) For measurement of PI3K activity, 10 μl of sonicated PIP2 (1 μg/μl, Calbiochem), 10 μl of 100 mM MgCl2 and 1 μl of [-^32P]ATP (500 μCi/ml) were added to the kinase buffer (10 mM Tris-HCl (pH 7.4), 150 mM NaCl, 1 mM Na3VO4, 10 mM ZnCl2) and incubated at 37° C. for 30 min. After incubation, 20 μl of 6 N HCl was added to stop the reaction and PIP2 was extracted by treatment with 200 μl of methanol:chloroform (1:1) solution. The amount of radioactively labeled PIP2 in the extract was measured using a scintillator counter.
In addition, Hep3B liver cancer cells were incubated with 4 μM peptides for 48 hr and the PI3K activity was analyzed.

The test system of experiment [2] is MDA MB 231 cells. In words: Cell migration, modified Boyden chamber method. The following applies: 4 μM peptide, 2 days of treatment, 18 hr migration, FIG. 3B. The procedure:
MDA MB 231 cells were transfected with pCK-flag (control), FOG2-wt (wild type) and FOG2 mutants having modified zinc finger domain (FOG2-ZF-5-m and FOG2-ZF-6-m). The cell migration was then analyzed using the modified Boyden chamber method (Albini A et al., Cancer Res 1987 47:3239-45). Following the transfection for 24 hr, MDA MB 231 cells (1×10^5) were suspended in a serum-free medium and seeded in triplicate in the upper part of BD chamber ([…] pore size). The lower part was filled with the serum-free medium. Following the incubation at 37° C. for 18 hr, non-migrating cells positioned at the upper surface of filters were cleaned with a cotton swab. The migrating cells passing through the lower surface of filters were fixed with 70% ethanol and treated with the Giemsa staining solution for 50 min. Then, the cells were rinsed with water and observed under a microscope. The cell migration rate was determined by counting the number of cells present in randomly-selected six sections and the migration range was expressed as the average number of cells per a microscopic field.
MDA MB 231 cells were incubated with 4 μM Mock (control, DMSO), 4 μM ZF-5-wt-24, 4 μM ZF-5-m-24, 4 μM ZF-5-wt-20 or 4 μM ZF-3-wt-21. After treatment, the cell migration was analyzed using the modified Boyden chamber method (Albini A et al., Cancer Res 1987 47:3239-45). After 2 days of treatment, MDA MB 231 cells (1×10^5) were suspended in the serum free medium and seeded in triplicate in the upper part of BD chamber ([…] pore size). The lower part was filled with the serum free medium. Following the incubation at 37° C. for 18 hr, non-migrating cells positioned at the upper surface of filters were cleaned with the cotton swab. The migrating cells passing through the lower side surface of filters were fixed with 70% ethanol and stained using the Giemsa stain method. The cell migration rate was determined by counting the number of cells present in randomly-selected six sections and the migration range was expressed as the average number of cells per a microscopic field.

The subject of experiment [3] is MDA MB 231 cells. In words: Cell proliferation MTT assay. The following applies: synthesized peptide, increasing concentration, FIG. 6B. The procedure:
Because the PI3K activation is critical in cell growth, the cell proliferation was analyzed to investigate the inhibitory effect of the FOG2 zinc finger domain using the MTT assay.
MDA MB 231 cells were seeded in a 96-well plate, and transfected with 100 ng DNA of pCKflag, FOG2-wt, FOG2-ZF-5-m or FOG2-ZF-6-m using Lipofectamine 2000. On 3 days post-transfection, the MTT assay was performed.
MDA MB 231 cells (2×10^3 cells) were seeded in a 96-well plate and treated with 4 μM each peptide for 3 days. After the treatment, 50 μl of MTT solution (2 mg/ml) was added to each well, incubated at 37° C. for 1 hr. Then, 150 μl of DMSO was added to each well and the absorbance value of each well was measured at 590 nm using a microplate reader.

Experiment [4] deals with T1, PI3K. In words: PI3K activity in MDA MB 231 cells incubated with zinc finger domain peptides. Also noted: The cell lysates were immunoprecipitated with p85α (sc-1637, Santa Cruz) and Protein G-Sepharose beads; endogenous in cells. As for the experimental part:
as §1
For peptide treatment, cells were trypsinized to detach them from a culture dish and their aliquot (2×10^5 cells) was incubated with 4 μM peptides in 100 mm dishes. The control was incubated with Mock (DMSO).

The test system of experiment [5] is MDA MB 231 cells. The experiment can be described thus: Apoptosis by FACS analysis (propidium iodide) in MDA MB 231 cells. The conditions noted are these: transfected with 1 μg FOG2 fragment, 2 days, FIG. 7A. As for the experimental part:
PI3K inactivation has been reported to cause cancer cell apoptosis, and FOG2 is known to inhibit the PI3K activity. To test whether PI3K inactivation by overexpressing FOG2 induces apoptosis, MDA MB 231 cells overexpressed FOG2 were analyzed with FACS.
MDA MB 231 cells were incubated with Full-FOG2[1-1151], FOG2[1-412], FOG2[413-789] or FOG2[802-1151]. The cells (5×10^4) were seeded in a 12-well plate and transfected with 1 μg of Full-FOG2[1-1151], FOG2[1-412], FOG2[413-789] or FOG2[802-1151] using Lipofectamine 2000. The cells were incubated at 37° C. for 2 days and subject to FACS analysis.
The cells were incubated with FOG2 fragments and fixed with 70% ethanol for 16 hr. The fixed cells were stained using RNase (5 mg/ml) and propidium iodide ([…]). The amount of DNA in stained cells was analyzed with Cell Quest program of FACS caliber (Becton Dickinson).
Background: Flow cytometry measures light scatter and fluorescence of single cells or particles in a stream.

T1 sequence (P27986 whole entry): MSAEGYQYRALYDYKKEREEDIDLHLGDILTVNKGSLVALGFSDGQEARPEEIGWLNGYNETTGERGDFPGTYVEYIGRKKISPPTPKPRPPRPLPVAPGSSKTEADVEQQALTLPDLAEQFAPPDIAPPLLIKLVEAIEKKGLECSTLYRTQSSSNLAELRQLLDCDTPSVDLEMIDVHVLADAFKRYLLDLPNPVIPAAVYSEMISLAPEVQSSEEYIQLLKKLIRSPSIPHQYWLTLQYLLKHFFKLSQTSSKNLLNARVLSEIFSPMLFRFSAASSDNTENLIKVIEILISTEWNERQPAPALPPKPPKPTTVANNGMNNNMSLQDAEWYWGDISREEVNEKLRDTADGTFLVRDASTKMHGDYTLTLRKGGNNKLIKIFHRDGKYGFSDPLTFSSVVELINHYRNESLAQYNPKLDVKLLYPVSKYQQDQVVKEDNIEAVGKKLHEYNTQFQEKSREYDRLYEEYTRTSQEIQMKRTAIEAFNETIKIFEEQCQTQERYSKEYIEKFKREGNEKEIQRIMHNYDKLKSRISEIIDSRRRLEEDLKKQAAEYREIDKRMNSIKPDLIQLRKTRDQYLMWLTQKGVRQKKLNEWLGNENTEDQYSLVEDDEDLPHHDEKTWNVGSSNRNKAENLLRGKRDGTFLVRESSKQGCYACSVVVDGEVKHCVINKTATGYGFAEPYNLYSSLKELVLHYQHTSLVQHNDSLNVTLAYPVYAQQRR

“ZF-3-wt-21: The peptide not comprising the fifth zinc finger domain of FOG2 (LKCTVCSYTADSVINFHQHLF) [reference compound]”: in the experiment with PI3K [1], the “IGF-1-induced PI3K activation” value is on record as “did not inhibit”. Further, the “reduction of cell migration” value in the experiment with MDA MB 231 cells [2] is “not observed”.

“ZF-5-m-24: FOG2 mutant peptide with altered fifth zinc finger domain (24 amino acids) (CFECNITFNNLDNYLYLVAKKAYC)”: the “IGF-1-induced PI3K activation” value in the experiment with PI3K [1] is reported as “did not inhibit”. In the experiment on MDA MB 231 cells [3], the “inhibitory effect on cell proliferation” value is given as “does not”. In the experiment with MDA MB 231 cells [2], the “reduction of cell migration” value is reported as “not observed”. Further, in the experiment with PI3K [4] (MDA MB 231 cells, 4 μM peptide, 48 hr, relative to ZF-5-wt-24, FIG. 5B), the “inhibition of PI3K activity” value is recorded as “approximately 30%”. Moreover, in the experiment with PI3K [4] (synthesized peptides, FIG. 5), the PI3K activity entry is given as “does not affect”.

B1: FOG2[413-789]: The FOG2 protein comprising the amino acid sequence ranging 413-789th amino acid residues of FOG2 full-length amino acid sequence (protein, UniProt Q8WW38 413-789, looked up, fragment)
chain: DLLTRSELPQSQKAMQTKDASSDTELDKCEKKTQLFLTNQRPEIQPTTNKQSFSYTKIKSEPSSPRLASSPVQPNIGPSFPVGPFLSQFSFPQDITMVPQASEILAKMSELVHRRLRHGSSSYPPVIYSPLMPKGATCFECNITFNNLDNYLVHKKHYCSSRWQQMAKSPEFPSVSEKMPEALSPNTGQTSINLLNPAAHSADPENPLLQTSCINSSTVLDLIGPNGKGHDKDFSTQTKKLSTSSNNDDKINGKPVDVKNPSVPLVDGESDPNKTTCEACNITFSRHETYMVHKQYYCATRHDPPLKRSASNKVPAMQRTMRTRKRRKMYEMCLPEQEQRPPLVQQRFLDVANLNNPCTSTQEPTEGLGECYHPRCD
Regarding B1, the “number of apoptotic cells” value in the experiment on MDA MB 231 cells [5] was “increased”.

B2: FOG2[1-412]: Truncated FOG2 mutant in pCK-flag vector, residues 1-412 (protein, UniProt Q8WW38 1-412, looked up, fragment)
chain: MSRRKQSKPRQIKRPLEDAIEDEEEECPSEETDIISKGDFPLEESFSTEFGPENLSCEEVEYFCNKGDDEGIQETAESDGDTQSEKPGQPGVETDDWDGPGELEVFQKDGERKIQSRQQLPVGTTWGPFPGKMDLNNNSLKTKAQVPMVLTAGPKWLLDVTWQGVEDNKNNCIVYSKGGQLWCTTTKAISEGEELIAFVVDFDSRLQAASQMTLTEGMYPARLLDSIQLLPQQAAMASILPTAIVNKDIFPCKSCGIWYRSERNLQAHLMYYCSGRQREAAPVSEENEDSAHQISSLCPFPQCTKSFSNARALEMHLNSHSGVKMEEFLPPGASLKCTVCSYTADSVINFHQHLFSHLTQAAFRCNHCHFGFQTQRELLQHQELHVPSGKLPRESDMEHSPSATEDSLQPAT
modifications: FLAG tag
Regarding B2, the “number of apoptotic cells” value in the experiment with MDA MB 231 cells [5] is “reduces the apoptosis”.

These data come from patent publication US20130116185A1, “PHOSPHATIDYLINOSITOL 3-KINASES ACTIVITY REGULATOR INCLUDING THE FIFTH ZINC FINGER DOMAIN OF FOG2” (SNU R&DB FOUNDATION, priority 2010, published 2013).
